Data set [1] deals with PvCPS (full-length copalyl diphosphate synthase) (Talaromyces verruculosus, UniProt A0A348FUE1, S723T). To be noted: substrate inhibition constant; 1 mM DMAPP, 1 mM MgCl2, pH 7.5.
Data set [2] concerns the target S723F-PvCPS-α (prenyltransferase α domain of copalyl diphosphate synthase from Penicillium verruculosum, S723F variant) (Penicillium verruculosum). Briefly: crystal structure.
Substrate in data set [3]: C=C(C)CCO[P@@](=O)(O)OP(=O)(O)O
Briefly: purified protein. To be noted: prenyltransferase activity, 1 mM DMAPP, 1 mM MgCl2, pH 7.5.

For the molecule `C=C(C)CCOP(=O)(O)OP(=O)(O)O` [isopentenyl diphosphate], the S723T in data set [1] was determined as 700 ± 100 µM.

As usually defined, the stoichiometry N is the number of molecules, sites or subunits per partner or assembly. As to “S723F-PvCPS-α (prenyltransferase α domain of copalyl diphosphate synthase from Penicillium verruculosum, S723F variant) (domain or fragment)”, the stoichiometry N in data set [2] turned out to be 6.

B1: PvCPS (full-length copalyl diphosphate synthase) (Talaromyces verruculosus; H786A) (protein)
chain: MSPMDLQESAAALVRQLGERVEDRRGFGFMSPAIYDTAWVSMISKTIDDQKTWLFAECFQYILSHQLEDGGWAMYASEIDAILNTSASLLSLKRHLSNPYQITSITQEDLSARINRAQNALQKLLNEWNVDSTLHVGFEILVPALLRYLEDEGIAFAFSGRERLLEIEKQKLSKFKAQYLYLPIKVTALHSLEAFIGAIEFDKVSHHKVSGAFMASPSSTAAYMMHATQWDDECEDYLRHVIAHASGKGSGGVPSAFPSTIFESVWPLSTLLKVGYDLNSAPFIEKIRSYLHDAYIAEKGILGFTPFVGADADDTATTILVLNLLNQPVSVDAMLKEFEEEHHFKTYSQERNPSFSANCNVLLALLYSQEPSLYSAQIEKAIRFLYKQFTDSEMDVRDKWNLSPYYSWMLMTQAITRLTTLQKTSKLSTLRDDSISKGLISLLFRIASTVVKDQKPGGSWGTRASKEETAYAVLILTYAFYLDEVTESLRHDIKIAIENGCSFLSERTMQSDSEWLWVEKVTYKSEVLSEAYILAALKRAADLPDENAEAAPVINGISTNGFEHTDRINGKLKVNGTNGTNGSHETNGINGTHEIEQINGVNGTNGHSDVPHDTNGWVEEPTAINETNGHYVNGTNHETPLTNGISNGDSVSVHTDHSDSYYQRSDWTADEEQILLGPFDYLESLPGKNMRSQLIQSFNTWLKVPTESLDVIIKVISMLHTASLLIDDIQDQSILRRGQPVAHSIFGTAQAMNSGNYVYFLALREVQKLQNPKAISIYVDSLIDLARGQGMELFWRDSLMCPTEEQYLDMVANKTGGLFCLAIQLMQAEATIQVDFIPLVRLLGIIFQICDDYLNLKSTAYTDNKGLCEDLTEGKFSFPIIHSIRSNPGNRQLINILKQKPREDDIKRYALSYMESTNSFEYTRGVVRKLKTEAIDTIQGLEKHGLEENIGIRKILARMSLEL
By Km is commonly meant the substrate concentration at which the rate is half of its maximum. Usually kcat stands for the maximal rate divided by the concentration of active sites. As usually defined, the kcat/Km is the second-order rate constant that governs catalysis at low substrate concentration. In the case of B1, in data set [3], the Km was 160 ± 10 µM, the kcat is 0.027 s⁻¹ and the specificity constant (kcat/Km) was found to be 170 M⁻¹ s⁻¹.

B2: PvCPS (full-length copalyl diphosphate synthase) (Talaromyces verruculosus; S723T) (protein)
chain: MSPMDLQESAAALVRQLGERVEDRRGFGFMSPAIYDTAWVSMISKTIDDQKTWLFAECFQYILSHQLEDGGWAMYASEIDAILNTSASLLSLKRHLSNPYQITSITQEDLSARINRAQNALQKLLNEWNVDSTLHVGFEILVPALLRYLEDEGIAFAFSGRERLLEIEKQKLSKFKAQYLYLPIKVTALHSLEAFIGAIEFDKVSHHKVSGAFMASPSSTAAYMMHATQWDDECEDYLRHVIAHASGKGSGGVPSAFPSTIFESVWPLSTLLKVGYDLNSAPFIEKIRSYLHDAYIAEKGILGFTPFVGADADDTATTILVLNLLNQPVSVDAMLKEFEEEHHFKTYSQERNPSFSANCNVLLALLYSQEPSLYSAQIEKAIRFLYKQFTDSEMDVRDKWNLSPYYSWMLMTQAITRLTTLQKTSKLSTLRDDSISKGLISLLFRIASTVVKDQKPGGSWGTRASKEETAYAVLILTYAFYLDEVTESLRHDIKIAIENGCSFLSERTMQSDSEWLWVEKVTYKSEVLSEAYILAALKRAADLPDENAEAAPVINGISTNGFEHTDRINGKLKVNGTNGTNGSHETNGINGTHEIEQINGVNGTNGHSDVPHDTNGWVEEPTAINETNGHYVNGTNHETPLTNGISNGDSVSVHTDHSDSYYQRSDWTADEEQILLGPFDYLESLPGKNMRSQLIQSFNTWLKVPTESLDVIIKVISMLHTATLLIDDIQDQSILRRGQPVAHSIFGTAQAMNSGNYVYFLALREVQKLQNPKAISIYVDSLIDLHRGQGMELFWRDSLMCPTEEQYLDMVANKTGGLFCLAIQLMQAEATIQVDFIPLVRLLGIIFQICDDYLNLKSTAYTDNKGLCEDLTEGKFSFPIIHSIRSNPGNRQLINILKQKPREDDIKRYALSYMESTNSFEYTRGVVRKLKTEAIDTIQGLEKHGLEENIGIRKILARMSLEL
B2: in data set [3], the Km came to 36 ± 3 µM, the kcat was determined as 0.051 s⁻¹ and the specificity constant (kcat/Km) is 1400 M⁻¹ s⁻¹.

B3: PvCPS (full-length copalyl diphosphate synthase) (Talaromyces verruculosus; S723F) (protein)
chain: MSPMDLQESAAALVRQLGERVEDRRGFGFMSPAIYDTAWVSMISKTIDDQKTWLFAECFQYILSHQLEDGGWAMYASEIDAILNTSASLLSLKRHLSNPYQITSITQEDLSARINRAQNALQKLLNEWNVDSTLHVGFEILVPALLRYLEDEGIAFAFSGRERLLEIEKQKLSKFKAQYLYLPIKVTALHSLEAFIGAIEFDKVSHHKVSGAFMASPSSTAAYMMHATQWDDECEDYLRHVIAHASGKGSGGVPSAFPSTIFESVWPLSTLLKVGYDLNSAPFIEKIRSYLHDAYIAEKGILGFTPFVGADADDTATTILVLNLLNQPVSVDAMLKEFEEEHHFKTYSQERNPSFSANCNVLLALLYSQEPSLYSAQIEKAIRFLYKQFTDSEMDVRDKWNLSPYYSWMLMTQAITRLTTLQKTSKLSTLRDDSISKGLISLLFRIASTVVKDQKPGGSWGTRASKEETAYAVLILTYAFYLDEVTESLRHDIKIAIENGCSFLSERTMQSDSEWLWVEKVTYKSEVLSEAYILAALKRAADLPDENAEAAPVINGISTNGFEHTDRINGKLKVNGTNGTNGSHETNGINGTHEIEQINGVNGTNGHSDVPHDTNGWVEEPTAINETNGHYVNGTNHETPLTNGISNGDSVSVHTDHSDSYYQRSDWTADEEQILLGPFDYLESLPGKNMRSQLIQSFNTWLKVPTESLDVIIKVISMLHTAFLLIDDIQDQSILRRGQPVAHSIFGTAQAMNSGNYVYFLALREVQKLQNPKAISIYVDSLIDLHRGQGMELFWRDSLMCPTEEQYLDMVANKTGGLFCLAIQLMQAEATIQVDFIPLVRLLGIIFQICDDYLNLKSTAYTDNKGLCEDLTEGKFSFPIIHSIRSNPGNRQLINILKQKPREDDIKRYALSYMESTNSFEYTRGVVRKLKTEAIDTIQGLEKHGLEENIGIRKILARMSLEL
Regarding B3, in data set [3], the Km was found to be 50 ± 10 µM, the kcat worked out at 0.11 s⁻¹ and the catalytic efficiency (kcat/Km) worked out at 2200 M⁻¹ s⁻¹.

B4: PvCPS (full-length copalyl diphosphate synthase) (Talaromyces verruculosus; F760A) (protein)
chain: MSPMDLQESAAALVRQLGERVEDRRGFGFMSPAIYDTAWVSMISKTIDDQKTWLFAECFQYILSHQLEDGGWAMYASEIDAILNTSASLLSLKRHLSNPYQITSITQEDLSARINRAQNALQKLLNEWNVDSTLHVGFEILVPALLRYLEDEGIAFAFSGRERLLEIEKQKLSKFKAQYLYLPIKVTALHSLEAFIGAIEFDKVSHHKVSGAFMASPSSTAAYMMHATQWDDECEDYLRHVIAHASGKGSGGVPSAFPSTIFESVWPLSTLLKVGYDLNSAPFIEKIRSYLHDAYIAEKGILGFTPFVGADADDTATTILVLNLLNQPVSVDAMLKEFEEEHHFKTYSQERNPSFSANCNVLLALLYSQEPSLYSAQIEKAIRFLYKQFTDSEMDVRDKWNLSPYYSWMLMTQAITRLTTLQKTSKLSTLRDDSISKGLISLLFRIASTVVKDQKPGGSWGTRASKEETAYAVLILTYAFYLDEVTESLRHDIKIAIENGCSFLSERTMQSDSEWLWVEKVTYKSEVLSEAYILAALKRAADLPDENAEAAPVINGISTNGFEHTDRINGKLKVNGTNGTNGSHETNGINGTHEIEQINGVNGTNGHSDVPHDTNGWVEEPTAINETNGHYVNGTNHETPLTNGISNGDSVSVHTDHSDSYYQRSDWTADEEQILLGPFDYLESLPGKNMRSQLIQSFNTWLKVPTESLDVIIKVISMLHTASLLIDDIQDQSILRRGQPVAHSIFGTAQAMNSGNYVYALALREVQKLQNPKAISIYVDSLIDLHRGQGMELFWRDSLMCPTEEQYLDMVANKTGGLFCLAIQLMQAEATIQVDFIPLVRLLGIIFQICDDYLNLKSTAYTDNKGLCEDLTEGKFSFPIIHSIRSNPGNRQLINILKQKPREDDIKRYALSYMESTNSFEYTRGVVRKLKTEAIDTIQGLEKHGLEENIGIRKILARMSLEL
B4: in data set [3], the Michaelis constant (Km) stood at 38 ± 1 µM, the kcat stood at 0.0279 s⁻¹ and the catalytic efficiency (kcat/Km) was found to be 740 M⁻¹ s⁻¹.

For the origin of these results see publication PMC8551067 (Biochemistry, 2021).
